According to paper PMC3929611, “Generation of Recombinant Antibodies to Rat GABAA Receptor Subunits by Affinity Selection on Synthetic Peptides” (PLoS ONE, 2014):
Primed or numbered codes have the meaning given here. Ends that are not written are not given here. * marks the point of attachment. Biotin = O=C1N[C@H]2[C@H](CS[C@H]2CCCCC(=O)*)N1; FITC′ = fluorescein isothiocyanate

Assays:
[1] = target: T1, α1β2γ2 GABAA receptor expressed in Xenopus laevis oocytes (rat α1, rat β2 and human γ2 subunit sequences) (Rattus norvegicus (alpha1, beta2); Homo …, UniProt P62813;P63138;P18507); assay: immunostaining of cells or tissue; Xenopus oocytes expressing α1β2γ2 GABAA receptors or non-expressing, blocked with 10% fetal bovine serum, incubated with scFv overnight at 16°C, detected with FITC-conjugated M2 anti-Flag, confocal microscopy; conditions: one partner purified
T1 construct: GABAA receptor subunit α1, rat; GABAA receptor subunit β2, rat; GABAA receptor subunit γ2, human; also called intact GABAA receptor; GABAA receptors heterologously expressed by Xenopus laevis oocytes; source: Xenopus laevis oocytes injected with mRNA of each subunit, on the oocyte surface; copies: + +

FITC-labeled α1 peptide = target: T2, FITC-labeled α1 peptide (Rattus norvegicus); assay: fluorescence polarisation; 6 µM FITC-α1 peptide or 4 µM FITC-β2 peptide with varying scFv (0-35 µM; G11 0-10 µM) or A10 scFv-Fc (0-1 µM) in PBS + 200 mM imidazole, overnight at 4°C or 2 h at RT; conditions: both partners purified
T2 construct: GABAA receptor subunit α1, rat, residues 1-15; also called FITC-conjugated target peptide (α1); source: synthetic peptide, HPLC purified
T2 chain: {FITC′}-QPSQDELKDNTTVFT

[2] = target: T3, biotinylated α1 peptide (GABAA receptor α1 subunit peptide) (Rattus norvegicus, SMILES …); assay: SRU BIND Reader (label-free plate-based biosensor); biotinylated peptides (10 µg/mL) captured on streptavidin-coated BIND plates, blocked with PBST + 5% BSA, scFvs (0.008-17.5 µM) added in elution buffer, 1 h at RT; shift of peak wavelength against concentration; conditions: both partners purified
T3 construct: Serine-Glycine-Serine linker between the N-terminal biotin and the peptide; GABAA receptor subunit α1, rat, residues 1-15; also called alpha 1; source: synthetic peptide
T3 chain: Biotin-SGSQPSQDELKDNTTVFT-NH2

[3] = target: T4, MBP-α1 peptide fusion protein (Rattus norvegicus); assay: far-Western, overlay or dot blot; dot blot; 1 µg to 0.0075 µg MBP-fusion protein adsorbed on PVDF membrane, about 10 nM A10 scFv or A10 scFv-Fc overnight at 4°C, detected with α-Flag-800CW; conditions: both partners purified
T4 construct: GABAA receptor subunit α1, rat, residues 1-15, inserted at the C-terminus of the MBP gene in pAT224; also called MBP-fusion protein; source: E. coli, purified (His60 Ni Superflow resin); not shown: MBP, N-terminal, kept
T4 chain: QPSQDELKDNTTVFT

[4] = target: T5, GABAA receptor α1 subunit, native, in mouse retina (Mus musculus C57BL/6J, UniProt P62812); assay: immunostaining of cells or tissue; 16 µm cryosections of paraformaldehyde-fixed mouse retina, biotinylated scFv, detected with Cy5-conjugated streptavidin, confocal microscopy; conditions: one partner purified
T5 construct: GABAA receptor subunit α1, mouse, within native receptors of the retina; Tissue fixed in 4% paraformaldehyde; also called native GABAA receptors in the mouse retina; source: endogenous, C57BL/6J mouse retina, fixed cryosections

FITC-labeled β2 peptide = target: T6, FITC-labeled β2 peptide (Rattus norvegicus (paper: rat/human)); assay: fluorescence polarisation; 6 µM FITC-α1 peptide or 4 µM FITC-β2 peptide with varying scFv (0-35 µM; G11 0-10 µM) or A10 scFv-Fc (0-1 µM) in PBS + 200 mM imidazole, overnight at 4°C or 2 h at RT; conditions: both partners purified
T6 construct: GABAA receptor subunit β2, rat/human, residues 1-19; also called FITC-conjugated target peptide (β2); source: synthetic peptide, HPLC purified
T6 chain: {FITC′}-MWRVRKRGYFGIWSFPLII

[5] = target: T7, biotinylated β2 peptide (GABAA receptor β2 subunit peptide) (Rattus norvegicus (paper: rat/human), biotin at the N-terminus; C-terminal amide); assay: SRU BIND Reader (label-free plate-based biosensor); biotinylated peptides (10 µg/mL) captured on streptavidin-coated BIND plates, blocked with PBST + 5% BSA, scFvs (0.008-17.5 µM) added in elution buffer, 1 h at RT; shift of peak wavelength against concentration; conditions: both partners purified
T7 construct: Serine-Glycine-Serine linker between the N-terminal biotin and the peptide; GABAA receptor subunit β2, rat/human, residues 1-19; also called beta 2; source: synthetic peptide
T7 chain: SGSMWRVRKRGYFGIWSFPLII

T1 sequence (P62813 28-455, chain 1 of 3): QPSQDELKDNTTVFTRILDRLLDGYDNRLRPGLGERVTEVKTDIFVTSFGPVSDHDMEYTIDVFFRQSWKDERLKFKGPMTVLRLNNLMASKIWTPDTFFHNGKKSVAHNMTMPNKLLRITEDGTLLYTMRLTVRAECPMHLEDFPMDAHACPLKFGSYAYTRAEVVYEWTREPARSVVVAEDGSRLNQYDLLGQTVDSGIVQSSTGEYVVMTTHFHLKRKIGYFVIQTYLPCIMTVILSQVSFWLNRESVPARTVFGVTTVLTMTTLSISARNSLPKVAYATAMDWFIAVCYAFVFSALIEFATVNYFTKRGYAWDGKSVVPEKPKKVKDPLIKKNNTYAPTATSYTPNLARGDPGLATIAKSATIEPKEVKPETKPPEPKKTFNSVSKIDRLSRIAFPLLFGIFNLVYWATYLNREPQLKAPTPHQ
T1 sequence (P63138 26-474, chain 2 of 3): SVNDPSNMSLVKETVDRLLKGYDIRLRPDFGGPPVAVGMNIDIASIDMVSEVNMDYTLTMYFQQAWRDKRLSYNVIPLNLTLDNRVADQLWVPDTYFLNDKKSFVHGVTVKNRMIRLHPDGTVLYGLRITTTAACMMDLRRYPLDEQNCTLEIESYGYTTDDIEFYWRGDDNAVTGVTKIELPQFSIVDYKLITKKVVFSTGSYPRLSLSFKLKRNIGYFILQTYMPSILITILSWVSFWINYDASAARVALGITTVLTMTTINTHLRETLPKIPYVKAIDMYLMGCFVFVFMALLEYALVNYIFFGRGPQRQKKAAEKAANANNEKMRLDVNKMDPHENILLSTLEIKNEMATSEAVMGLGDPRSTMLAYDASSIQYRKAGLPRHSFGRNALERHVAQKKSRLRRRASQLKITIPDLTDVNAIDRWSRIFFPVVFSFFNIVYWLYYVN
T1 sequence (P18507 40-475, chain 3 of 3): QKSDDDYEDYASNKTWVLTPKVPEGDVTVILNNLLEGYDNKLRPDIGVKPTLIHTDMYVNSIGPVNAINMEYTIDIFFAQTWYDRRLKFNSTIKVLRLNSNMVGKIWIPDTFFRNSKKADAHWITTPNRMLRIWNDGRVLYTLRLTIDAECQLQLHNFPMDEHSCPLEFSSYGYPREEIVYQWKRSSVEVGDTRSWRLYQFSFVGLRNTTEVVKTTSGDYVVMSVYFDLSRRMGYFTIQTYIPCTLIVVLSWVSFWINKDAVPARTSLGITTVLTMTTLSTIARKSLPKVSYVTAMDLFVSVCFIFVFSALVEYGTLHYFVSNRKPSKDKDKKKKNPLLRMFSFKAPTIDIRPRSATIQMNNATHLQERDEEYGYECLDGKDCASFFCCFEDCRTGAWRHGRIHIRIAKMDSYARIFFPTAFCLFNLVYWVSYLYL
T5 sequence (P62812 28-455): as the sequence (P62813 28-455, chain 1 of 3) above

B1: A10 scFv (anti-α1 subunit-specific scFv), soluble protein (scFv, V domains shown)
VH: EVQLVQSGAEVKKPGASVKVSCKASGYTFTSYYMHWVRQAPGQGLEWMGIINPSGGSTSYAQKFQGRVTMTRDTSTSTVYMELSSLRSEDTAVYYCARDGWGGSSFLDYWGQGTLVTVSS
VL: SYELTQPPSVSVSPGQTARITCSGDALPKKYAYWYQQKSGQAPVLVIYEDSKRPSGIPERFSGSSSGTMATLTISGAQVEDEADYYCYSKDNTGYQMVFGGGTKLTVL
notes: human scFv from a naive phage-display library, order VL-linker-VH; also called scFv A10; anti-α1 scFv; source: P. pastoris X33, secreted, purified (Ni-NTA)
**Q.** Does B1 bind [1]?
**A.** binds

**Q.** What about the Kd (FITC-labeled α1 peptide) of the same binder?
**A.** 3.5 µM

**Q.** What about the Kd [2] of the same binder?
**A.** 2.4 µM

B2: A10 scFv-Fc (dimeric scFv-Fc version of A10) (Fc fusion, human)
VH: EVQLVQSGAEVKKPGASVKVSCKASGYTFTSYYMHWVRQAPGQGLEWMGIINPSGGSTSYAQKFQGRVTMTRDTSTSTVYMELSSLRSEDTAVYYCARDGWGGSSFLDYWGQGTLVTVSS
VL: SYELTQPPSVSVSPGQTARITCSGDALPKKYAYWYQQKSGQAPVLVIYEDSKRPSGIPERFSGSSSGTMATLTISGAQVEDEADYYCYSKDNTGYQMVFGGGTKLTVL
notes: as the scFv of m1; order VL-linker-VH; also called A10-Fc; scFv-Fc A10; source: FreeStyle 293F cells, transiently transfected, secreted, purified (His60 Ni Superflow resin); not shown: Fc (human IgG), C-terminal, kept; 3x Flag, C-terminal, kept
**Q.** What does the source list for B2?
**A.** Kd (FITC-labeled α1 peptide): 0.026 µM; fold increase in dot-blot sensitivity over the scFv [3]: ~10 fold

B3: A10 scFv, biotinylated in vitro (scFv, V domains shown)
VH: EVQLVQSGAEVKKPGASVKVSCKASGYTFTSYYMHWVRQAPGQGLEWMGIINPSGGSTSYAQKFQGRVTMTRDTSTSTVYMELSSLRSEDTAVYYCARDGWGGSSFLDYWGQGTLVTVSS
VL: SYELTQPPSVSVSPGQTARITCSGDALPKKYAYWYQQKSGQAPVLVIYEDSKRPSGIPERFSGSSSGTMATLTISGAQVEDEADYYCYSKDNTGYQMVFGGGTKLTVL
notes: as the scFv of m1; order VL-linker-VH; The same protein as m1, chemically biotinylated for staining of retinal cryosections; also called α1-specific scFv; source: P. pastoris X33, secreted, purified (Ni-NTA)
**Q.** Does B3 bind [4]?
**A.** binds

B4: G8 scFv (anti-β2 subunit scFv), soluble protein (scFv, V domains shown)
VH: EVQLVQSGAEVKKPGATVKISCKVSGYTFTDYYMHWVQQAPGKGLEWMGLVDPEDGETIYAEKFQGRVTITADTSTDTAYMELSSLRSEDTAVYYCATTPPHDYYDSSGLDYWGQGTLVTVSS
VL: DIQMTQSPSSVSASVGDRVTITCRASQGINRWLAWYQQKPGKAPKLLIYAASNLQSGVPSRFSGSGSGTDFSLTISSLQPEDFATYYCQQSYSPPSTFGGGTKLEIK
notes: human scFv from a naive phage-display library, order VH-linker-VL; source: P. pastoris X33, secreted, purified (Ni-NTA)
**Q.** Does B4 bind [1]?
**A.** binds

**Q.** And the Kd (FITC-labeled β2 peptide)?
**A.** 0.97 µM

**Q.** And the Kd [5]?
**A.** 1.6 µM
